Reference: the supplement of paper PMC7877785
± gives the uncertainty stated by the source.

Assay: self-splicing fitness, log relative to wild type (ln ratio); higher = more splicing; Tetrahymena group I intron in knt gene, E. coli kanamycin selection, DiMSum; sequences stand for … in CUCUCU…GGAGGGAAAAGUUAUCAGGCAUGCACCUGGUAGCUAGUCUUUAAACCAAUAGAUUGCAUCGGUUUAAAAGGCAAGACCGUCAAAUUGCGGGAAAGGGGUCAACAGCCGUUCAGUACCAAGUCUCAGGGGAAACUUUGAGAUGGCCUUGCAAAGGGUAUGGUAAUAAGCUGACGGACAUGGUCCUAACCACGCAGCCAAGUCCUAAGUCAACAGAUCUUCUGUUGAUAUGGAUGCAGUUCACAGACUAAAUGUCGGUCGGGGAAGAUGUAUUCUUCUCAUAAGAUAUAGUCGGACCUCUCCUUAAUGGGAGCUAGCGGAUGAAGUGAUGCAACACUGGAGCCGCUGGGAACUAAUUUGUAUGCGAAAGUAUAUUGAUUAGUUUUGGAGUACUCGUGGUCG
How it was run: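 Library with all eight P1ex-region intron nucleotides randomised, intron inside the knt kanamycin-resistance gene on pET-22b(+), in E. coli BL21(DE3). Cells grew overnight at 37°C or 30°C on LB agar with or without 25 μg/mL kanamycin (plus 100 μg/mL carbenicillin, 50 μM IPTG, 0.2% rhamnose), in six replicate transformations. Pooled colonies were amplicon-sequenced on Illumina HiSeq 2500. DiMSum fitness is the error-weighted combination of wild-type-normalised replicate fold changes, kanamycin versus none.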

| Sequence | self-splicing fitness (ln) (30 °C) | self-splicing fitness (ln) (37 °C) |
| --- | --- | --- |
| CUUUAGCAAUAUUACGAACA | -3.07 ± 0.41 | – |
| CUUUAGCAAUAUUACGAAUC | -1.01 ± 0.45 | – |
| CUUUAGCAAUAUUACGACGA | – | -1.82 ± 0.24 |
| CUUUAGCAAUAUUACGAGCA | -3.14 ± 0.25 | -3.05 ± 0.3 |
| CUUUAGCAAUAUUACGAUGG | -1.01 ± 0.1 | -0.752 ± 0.13 |
| CUUUAGCAAUAUUACGAUUA | – | -1.92 ± 0.31 |
| CUUUAGCAAUAUUACGCAAC | -1.73 ± 0.24 | – |
| CUUUAGCAAUAUUACGCAGA | – | -2.09 ± 0.3 |
| CUUUAGCAAUAUUACGCCCU | -3.13 ± 0.38 | -3.23 ± 0.25 |
| CUUUAGCAAUAUUACGCCUA | -3.11 ± 0.3 | -1.73 ± 0.3 |
| CUUUAGCAAUAUUACGCGGA | -2.48 ± 0.27 | -2.81 ± 0.32 |
| CUUUAGCAAUAUUACGCUUA | -3.33 ± 0.37 | -3.35 ± 0.4 |
| CUUUAGCAAUAUUACGGCAG | -0.944 ± 0.12 | -0.552 ± 0.14 |
| CUUUAGCAAUAUUACGGGGC | -3.44 ± 0.28 | -2.54 ± 0.38 |
| CUUUAGCAAUAUUACGGGGU | -3.02 ± 0.24 | -2.94 ± 0.27 |
| CUUUAGCAAUAUUACGGUAU | -4.49 ± 0.34 | -2.4 ± 0.24 |
| CUUUAGCAAUAUUACGGUGA | – | -2.08 ± 0.3 |
| CUUUAGCAAUAUUACGUAUA | -3.57 ± 0.27 | -2.38 ± 0.49 |
| CUUUAGCAAUAUUACGUCGA | – | -1.96 ± 0.48 |
| CUUUAGCAAUAUUACGUGAC | -1.42 ± 0.19 | -1.53 ± 0.29 |
| CUUUAGCAAUAUUACGUGUG | -1.6 ± 0.094 | -0.61 ± 0.08 |
| CUUUAGCAAUAUUACGUUGA | – | -3.01 ± 0.35 |
| CUUUAGCAAUAUUACGUUUG | -2.43 ± 0.17 | -1.5 ± 0.17 |
| GAAAAGCAAUAUUACGAAUA | -1.57 ± 0.13 | -1.19 ± 0.1 |
| GAAAAGCAAUAUUACGAGGU | -3.97 ± 0.14 | -2.92 ± 0.13 |
| GAAAAGCAAUAUUACGAGUA | -3.92 ± 0.42 | -2.44 ± 0.2 |

| Sequence | self-splicing fitness (ln) (30 °C) | self-splicing fitness (ln) (37 °C) |
| --- | --- | --- |
| GAAAAGCAAUAUUACGAUAA | -1.58 ± 0.081 | -0.197 ± 0.091 |
| GAAAAGCAAUAUUACGAUGC | -0.709 ± 0.08 | -0.503 ± 0.1 |
| GAAAAGCAAUAUUACGCACG | -0.543 ± 0.09 | -0.904 ± 0.12 |
| GAAAAGCAAUAUUACGCACU | -0.498 ± 0.098 | 0.475 ± 0.1 |
| GAAAAGCAAUAUUACGCAUG | -1.12 ± 0.079 | -0.337 ± 0.1 |
| GAAAAGCAAUAUUACGCAUU | -3.24 ± 0.17 | -0.376 ± 0.11 |
| GAAAAGCAAUAUUACGCGUU | -2.98 ± 0.13 | -1.18 ± 0.12 |
| GAAAAGCAAUAUUACGCUAC | -2.67 ± 0.27 | -2.37 ± 0.29 |
| GAAAAGCAAUAUUACGCUAG | -1.8 ± 0.076 | -1.57 ± 0.099 |
| GAAAAGCAAUAUUACGCUGA | -1.91 ± 0.24 | -1.65 ± 0.21 |
| GAAAAGCAAUAUUACGCUGC | -3.12 ± 0.24 | -1.61 ± 0.39 |
| GAAAAGCAAUAUUACGGAAA | -2.88 ± 0.27 | -1.55 ± 0.16 |
| GAAAAGCAAUAUUACGGAGA | -3.59 ± 0.26 | -2.19 ± 0.21 |
| GAAAAGCAAUAUUACGGCUC | -0.401 ± 0.085 | 0.342 ± 0.12 |
| GAAAAGCAAUAUUACGGUAU | -2.38 ± 0.11 | -1.69 ± 0.14 |
| GAAAAGCAAUAUUACGGUCC | -1.8 ± 0.23 | -0.588 ± 0.17 |
| GAAAAGCAAUAUUACGUCUA | -0.367 ± 0.053 | 0.0921 ± 0.066 |
| GAAAAGCAAUAUUACGUGAU | -2.38 ± 0.087 | -1.9 ± 0.11 |
| GAAAAGCAAUAUUACGUGCU | -1.8 ± 0.098 | -0.978 ± 0.1 |
| GAAAAGCAAUAUUACGUUUA | -1.32 ± 0.11 | -0.963 ± 0.1 |
| GAACAGCAAUAUUACGAACU | -0.795 ± 0.07 | 0.239 ± 0.09 |
| GAACAGCAAUAUUACGACGG | -3.4 ± 0.19 | -1.81 ± 0.18 |
| GAACAGCAAUAUUACGACGU | -0.688 ± 0.064 | 0.167 ± 0.077 |
| GAACAGCAAUAUUACGAGCA | -1.01 ± 0.1 | -0.521 ± 0.1 |
| GAACAGCAAUAUUACGAGUC | -2.08 ± 0.09 | -1.45 ± 0.094 |
| GAACAGCAAUAUUACGAUGU | -1.05 ± 0.043 | -0.336 ± 0.06 |

| Sequence | self-splicing fitness (ln) (30 °C) | self-splicing fitness (ln) (37 °C) |
| --- | --- | --- |
| GAACAGCAAUAUUACGCAGG | -3.74 ± 0.14 | -2.7 ± 0.11 |
| GAACAGCAAUAUUACGCCCU | -1.69 ± 0.42 | 0.579 ± 0.37 |
| GAACAGCAAUAUUACGCUGG | -1.98 ± 0.28 | -1.3 ± 0.2 |
| GAACAGCAAUAUUACGGCGC | -0.147 ± 0.065 | -0.195 ± 0.09 |
| GAACAGCAAUAUUACGGCGG | -3.13 ± 0.16 | -0.604 ± 0.12 |
| GAACAGCAAUAUUACGGUAC | -1.37 ± 0.064 | -0.573 ± 0.072 |
| GAACAGCAAUAUUACGGUCC | -4.14 ± 0.25 | -0.683 ± 0.13 |
| GAACAGCAAUAUUACGGUGC | -1.38 ± 0.074 | -1.22 ± 0.086 |
| GAACAGCAAUAUUACGUACU | -1.26 ± 0.077 | -0.125 ± 0.1 |
| GAACAGCAAUAUUACGUAGG | -2.12 ± 0.057 | -0.569 ± 0.066 |
| GAACAGCAAUAUUACGUUCU | -3.36 ± 0.13 | -3.63 ± 0.2 |
| GAAGAGCAAUAUUACGAAAG | -4.13 ± 0.31 | -2.41 ± 0.18 |
| GAAGAGCAAUAUUACGAACG | – | -2.41 ± 0.33 |
| GAAGAGCAAUAUUACGAAGC | -3.81 ± 0.46 | -0.865 ± 0.3 |
| GAAGAGCAAUAUUACGAAUC | -3.48 ± 0.22 | -1.91 ± 0.15 |
| GAAGAGCAAUAUUACGACAC | -1.1 ± 0.31 | 0.351 ± 0.33 |
| GAAGAGCAAUAUUACGACGG | -2.5 ± 0.37 | -2.67 ± 0.48 |
| GAAGAGCAAUAUUACGAGAC | -3.95 ± 0.26 | -1.4 ± 0.25 |
| GAAGAGCAAUAUUACGAUGG | -3.18 ± 0.17 | -2.1 ± 0.23 |
| GAAGAGCAAUAUUACGCAUG | -3.45 ± 0.47 | -2.36 ± 0.33 |
| GAAGAGCAAUAUUACGCCCA | -3.65 ± 0.48 | -0.321 ± 0.31 |
| GAAGAGCAAUAUUACGGCAA | – | -2.36 ± 0.49 |
| GAAGAGCAAUAUUACGGCCA | -1.59 ± 0.3 | -1.27 ± 0.5 |
| GAAGAGCAAUAUUACGGCGA | -1.57 ± 0.2 | -0.931 ± 0.25 |
| GAAGAGCAAUAUUACGGUCA | -2.72 ± 0.34 | -2.05 ± 0.23 |
| GAAGAGCAAUAUUACGGUCC | -2.17 ± 0.26 | -2.32 ± 0.33 |
